Here are results for 18 sequences from the NTF2 design screens of Basanta et al. (2020).

The series is described as follows: protease stability score; higher = more stable; yeast display proteolysis, trypsin and chymotrypsin.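 Further: relative to predicted unfolded state with 0 unfolded-like and 1 meaning tenfold more protease.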
As for “SDYTEVAHEIMDEWSKAILTGDEDTVEELLDPNVRVDINGQEIHGWETIFKKLRRFVDELGIDHVHVNTKRVKLIGNYIHVDGELRYHQGDFHIVRKVRLLIVKINGQWLIREINLK”, the protease stability score is 2.42.

“SEAEEFARRVIELWIRSILTGNPDMSEKLADPNYKVHFNGVNIVGMEEFYRHLEEWRIHIDDFRIRDVRVQGDKMINDTEERITIKYGDKEIHLDVRLEIIIRKIDGRWHMHSIILH”: the protease stability score came to 2.2.

As to “SEAEERAEKFIELLTKALLTGDWRMISRMFDPHVRIIIGDKESHGMESLRDTLEHLRFDHINTRIEHVQVQGDWVEIHIRVHMRITVDGKEFHVETQMHYVLIKIDGKWVVREIEIR”, the protease stability score was 2.44.

The sequence “SEAEESARKLTHDILRLFLTGDEDLISRYFDPNVRHHINGQEEHGMEKMVKMLNHMRFRDMHLRDVRIHIIDGVATAHVEGELHGEVNGVRRDIKSELIIITEKFNGRWRLSSISFIIE” gave a protease stability score of 0.256.

Take “SEAEKRSEIILRLILHSLHTGDEHTLESLFDPNVRILIGDKELVGMEELSKLLRHIRIERVHIHLRDDRQQGDKADMDVELHRHGTFNGVRRDESSRIWIHAEKVDGRWVISEVIVH”: the protease stability score was 1.02.

The sequence “SEAERDAKELLELIVTTMRTGDEETLNRLMDPHTRLHVNGRDLIGRELMTEFLHEIRIEDSRTRDVRVFNGRLEVEGKLRGDWNGVEREVETRYIVEKVNGRWLLHSVTFE” displayed a protease stability score of 0.413.

“SEDAEYIKEFAELFFRWWITGDEEHLRSLADPHTRSDVNGRDIHGMELWSKMLLDHLTKIKNVRYTLREVRFFENHTELDMKVDINGKEMKFSIRVSLINGRLHSITVRLHSE”: the protease stability score worked out at 1.35.

Take “SEDAKLTEELFREWLTIMLTGDWEQSLRRIDPHARLIIDGRHFHGREEFSKVVKELRFKDMIDRRIHVDENEVFVDVELRGVINGREVTIKTHILIVVIDGVIHSIEIRNR”: the protease stability score worked out at 1.29.

Turning to “SEDDDHSEHMYRRILELWKTGNWRLFHELLDPNTRFEIGDKEFHGREEVVEYLRRDLEKFKNIRFHIRQHEVVGNKLHIDGEIIFNGKHEHVHIILLIVDGKIKEIRFESR”, the protease stability score was found to be 2.72.

In turn, “SEDDDLAKDFVSLMLHEFRTGNEESMSKLVDPHVRLHIGDKTYVGRENVSRILKKELRDYGIDHMHIDHLRVQGDKVHIHTTYRQGDKEMETHFVILKVDGKWFMHEIEIR” gave a protease stability score of 1.88.

The sequence “SEDDDLIREFFEDWVKSVLTGDEDTIAKLADPHTRHEYGDKEHHGRDLVVEMLTFLYKHIRFEDVRLRHFDIQGNKIILHGKVEGKIDGRHRTFDVTIEVIKVNGQWLWHTIVIR” showed a protease stability score of 1.89.

“SEDDDSAREILRILTEAWYTGNEDELIRLMDPNARSLFDGVEFHGRELVRLWKERVDHTHSIKVKLHSMRIIGNKLEVDGRLEQEGEINGRRFLIVVEVHLIILKVNGRWRMHSVEVR”: the protease stability score is 1.68.

Regarding “SEDDEAVSHALHLLSEVLLTGDERTWKRLADPNVKLEFNGREFHGMEEWKRMLDHIRIDHVKIELERSDSIGDKMHTHGRLIVHTTINGVELDRITDVRFIIEKVDGRWKLTSLHIH”, the protease stability score stood at 1.29.

In turn, “SEDDEDLKFAWDHLLRSWLTGNFDFFKEMFDPHTRLEQGEKEHHGRNAFERYLRELGIDHIKNIHIEDVEIQGDKMRLHGRQHIFVNGREINLEVTYIILKINGQWHLHRVRIK” gave a protease stability score of 0.846.

Sequence “SEDDEDNERWFERLLHSLHTGNEELTRKLMDPNVRVDFNGKDLHGMDHMVKLVRHLRNRVDHLHMLVHHSDNINGVAHNDVTLELRYGDKTERLRVRIVASKVDGRWILKSVEID” came in with a protease stability score of 1.28.

“SEDDEDVERAAKLMLHILRTGDERHLHEYLDPNVRSIVNGREFHGRESLLHVMTLQMRELGIDHINVRRVKYDEDEVHFFMNVNINGQHREVIFRAKKINGRWIFHEVELR” had a protease stability score of 1.7.

“SEDDEEKEEYLRKELEAHRTGDWRLFRELIDPHTKIHINGVLFVGWKDATRFFKEIRVKDHKVHRVRNIDGRIEMDGELNIDIDGREDIMIVHIRAKKVNGRWIVDSVEFR” showed a protease stability score of 1.19.

Turning to “SEDDEELEEAARRTLKIIRTGDEDLYTRLADPHDKMQIDGVETHGMEEISRWLKEHRDRFKGLKMIERRIRVTSIDGQVRVHIDTELRVDGVTQRVELNWIASKVDGRWRLERVEFIIR”, the protease stability score stood at 0.745.
